Measured values published in the DeepSol protein solubility set.

Experiment: soluble on expression in E. coli; label from the status in PepcDB or PDB records

Row | Sequence | soluble on expression in E. coli
1 | MGSDKIHHHHHHMDINADFSERVMVQSADLDWVASPMPGVDRRMLDRIGGEVARATSIVRYAPGSNFSAHTHTGGEEFVVLDGVFQDEHGDYPAGTYVRNPPTTSHTPGSDEGCTIFVKLWQFDMDDRTQFRRDMAAGGDRSVLHEDAFEIVTYHRLAPGAALEDPADGGAELLVLAGSLTEGGDTLITGGWLRLPESSTMHAVAGSEGATVWMKTGHLPHAKPPAVGRTR | not soluble
2 | MRKDETSNTSPDISAAQPASALRYHLRPPRRNDGAAIHQLVSECPPLDLNSLYAYLLLCEHHAHTCVVAESPGGRIDGFVSAYLLPTRPDVLFVWQVAVHSRARGHRLGRAMLGHILERQECRHVRHLETTVGPDNQASRRTFAGLAGERGAHVSEQPFFDRQAFGGADHDDEMLLRIGPFTHPPH | not soluble
3 | MPEFRVWAPKPALVRLDVNGAVHAMTRSADGWWHTTVAAPADARYGYLLDDDPTVLPDPRSARQPDGVHARSQRWEPPGQFGAARTDTGWPGRSVEGAVIYELHIGTFTTAGTFDAAIEKLDYLVDLGIDFVELMPVNSFAGTRGWGYDGVLWYSVHEPYGGPDGLVRFIDACHARRLGVLIDAVFNHLGPSGNYLPRFGPYLSSASNPWGDGINIAGADSDEVRHYIIDCALRWMRDFHADGLRLDAVHALVDTTAVHVLEELANATRWLSGQLGRPLSLIAETDRNDPRLITRPSHGGYGITAQWNDDIHHAIHTAVSGERQGYYADFGSLATLAYTLRNGYFHAGTYSSFRRRRHGRALDTSAIPATRLLAYTCTHDQVGNRALGDRPSQYLTGGQLAIKAALTLGSPYTAMLFMGEEWGASSPFQFFCSHPEPELAHSTVAGRKEEFAEHGWAADDIPDPQDPQTFQRCKLNWAEAGSGEHARLHRFYRDLIALRHNEADLADPWLDHLMVDYDEQQRWVVMRRGQLMIACNLGAEPTCVPVSGELVLAWESPIIGDNSTELAAYSLAILRAAEPA | not soluble
4 | MGSDKIHHHHHHMTKKITTHLESGLFKGKPRQKTVQHRNATTTPEMRQFIQQSDYSVSQLSKILNISEATVRKWRKRDSIDNTPNTPHKLNTTLSPMEEYVMLGLRYQLKMPLDRLLKVTQEFINPNVSRSGLARCLKRFGVSKLDEFDSPFVPEKFFNQLPITQGADIQTYTVNPKTLADTLSLPSPDPDNVVQVVSLSIPPQLTKQQAYSVLLGVDFKSDWVYLDIYQDSHTQASNRYITHVLKHGPFHLRKLLVRNYHTFLARFPGASQPAAVSTSTIDAAGSQHQITEPQLSNGDSYEPIQ | not soluble
5 | MLRKQARQRREYLYNKALTERLKSKQKIQETVVKSINENKAIGSKNVKKSLTAYKSLKYADEGVDDRTVNDEYHYAGCEDPKIMLTTSHNPSSRLKMFMKELRLIIPNAQQMNRGNYQLTTLMHACRANNVTDFLIVHEHRGIPDSLVVCHLPYGPTAFFNISDVVMRHDIPDIGHMSEQKPHLIFNNFKTPIGLRTVKILKHLFPVPKENSQRVMSFLNHNDSIIFRHHQYKYVNKELELTEVGPRFSLKLYQIKLGTLENIKAADTEWINRPYMNTSQKRLIFSNDPGIINKDTEALEHHHHHH | soluble
6 | MGSDKIHHHHHHMQWTEEQLPAIHSFAKKLLVQAFAGTGKTTTLVGYATHNSSVKMLYLCYNKAVEIAAKNRFPRNVTCKTAHGLAYAVYGSQYKHKQAGNLRLTDIARTINTQDWELAKDIVSTLNAFMASKDLELLEDHFVRFQSNRTLTSVQQQYMSKALNLTRDVWDKMVDIQDRSVSMTHDGYLKLYQMSQPDLSQRFGAILLDEGQDVNPVIANLVQIQKITQVTVGDRHQQLYRFRGAVDALNSPAMKDAEKHFLTQSFRFGPAVAYVANVILSFKGEKIPLQGLGQPTLVKRALPEDLPHRTYLHRTVSGVIENALRLVNQDHRMQWIGGIDSYSLRDLEDLFYFSRHMNDQVQQRKLLTDYADYDQYVVIAKATQDPEMLRSIKMIENYPDLPKRIEQLRGASVTSELDATVTLSTAHRAKGLEWDFVGLYDDFSADPLSPDIDAGKRDDELNLLYVAVTRAMKILAVNSLVIDIMQRFKDMKQRSRP | not soluble
7 | MSLTVRQLASLTRGAVRTLATDGAVAVLPIGAVEQHGDHLPLGTDFLLVEAVCDRAMQQLEDDRTTWVRVPTMTFGHSPHHLFAAAVSLQAGTLTDVLADVLDSLAQTGFRRIVIVNGHGGNDELVRLAVKAHSLHAEGTAAACSYWTLTAQTTAEAAATERPDRTPGHAGWFETSLMLAVHPELVADDRPFTPSDPPPLFNRSPAPGLTVERHGEWPRVGGTTDDAREASAETGRLLLGRRVAGLVAALQSLDRATATPPAASVPSTDRERGPQAEGHHHHHH | not soluble
8 | MGSDKIHHHHHHLKLTKNIVSIVTDVILNESEAIKNLVNHINDDFQHIIDAILSCKGRVVITGIGKSAIIGNKIVATLNSTGTPALFMHAADAIHGDLGMIQGGDVVICISKSGNTPEIKVLVPLIKNRGTILIGMVGNVDSYLAVQSDYVLNVTVEREACPNNLAPTTSTTATLVMGDALAVALLECRNFSSEDFAQLHPGGALGKQLYLRVNDVYTANEKPMVAPDATVKDVILEISSKRLGAAAVVDSAGILQGIITDGDLRRMLNAHDSFKQLCAADIMTKAPKTIDADEFAASAMLLMQSKNITQLIVMKNENFAGFIHIHDLLKEGIV | not soluble
9 | MGSDKIHHHHHHGGCVRDVIDDVPGTDEDYAADKKDVVLIRMGTNDAEVKDITSRLFNNIPSSWEIGKKTIVDYDKMKDPETELNADIKNPKIYMTVILNIDDVISGKYPISLFRMLKFYKRDFYVIATQSTPEQKEEMLSLIGVYMEAGYYAINYDNVQHYRIFPSADPYAKDNMIGKGVASFNQKLLTRSADTLPEGNDPDPGYNAQMADKEALKRIEIYNRIYGYAQGDMNYSMQAVPYKMKPGAAPDVIIDNSWAIDAYNFQIYSKNNNCILSITNNAGNGFTANIKDYTTPKGANVYAYIWNLMREASSEITVHSDGGIFREISYQPQTVNHGASYTENSFWKVSVSVSPTKLEDKPWEAFKVSFGKESSTEVSYKTKSMDYSCKGQFGNGLYSKLWQFIPGEFYDRAEAFVYETSQGLRWIDAAQAMTPNYVTWGGWTLRQNYLNHINNSMKLHQQQCIYSLESDAQPGVVSVAITDAIDLQKTYVHYNCGIRYGHDSARTDLKMSKMVWIDFRQWDN | not soluble
10 | MGSDKIHHHHHHMQSFKIIKPIHILTPYVRYYWILEDGADVSVSERTLPTGCIQLVFHRGKRLLLVGKKESQPQAFICGQCLNFSDVMSAGKIEMITVVFQPYAARAILQLPLKFFYGELIAVDAIADLELSILSRKVIEADDHETCIRLIEQFLIHRLYRFEGYEYNLKRISAVLHQINEQAKTNISELSETACLSSKQFNRIFLDYVGATPKEFLRIVRMQRALFKVQQNPSISFAQLAYECGFSDQSHMIKEFKLFSGYTPTEYLSLCAPYSDYFSE | not soluble
11 | MGSDKIHHHHHHSFSLPGYLFGRCPDYSITYDKNDAQEQKDVYICDGNKSVVRIDSYKWNSSSSDWVYDGKTVMENDNQGRTLVAISYSAADVAGEKTEYTYTGNGYEKFSVTSSSFEGGAWKAEAKVDIEATFNKDKYPVSILMTGTAEGETFKMKMEWSYDKNVTKTSSSIDFGGSWMLMSESKTEIVDAGNPMISKNYQKMYFPAETSWEYSGKTHDYFNGTTSIAPVVEENELKLHIYGDVLEVQGTESGISIYAITGGKMAESKSNRIDISRLPAGIYLLNTARGSIKFIHK | not soluble
12 | MSLGFHEVRFPTNLSFGSIGGPERRTEIVTLVNGFEERNSLWAHSRRRYDAGVALRSLDDIQALLAFFEARRGQLYGFRWKDWADYRSCPATASPGPKDQPLGIGDGISREFALVKTYRSGSEQYVRPVAKPVAGSVKVAVAGAVLVEGAGFSVDETRGLVTLAAAPAEGAAVTAGFEFDVPVRFDTDRIQISMASFQAGEVPSVPVMEVRVEGHHHHHH | soluble
13 | MGSDKIHHHHHHMRRSSLKEPGPASAIRTENFTRGMGEVPAALGKVCRGGSHAKAHERGLIMLISQILDDAETIRVVARNGGKTRIINGARSVYSLAMEAARTGVGLATLIERKGLGETVDLDAAYKKGRLLSPINHPDPAHLHLTGTGLTHLGSAATRDSMHKKLSSADGEEQLTDSMKMFRMGLEGGKPAKGQVGVQPEWFYKGNGTMAVAPGAALLSPAFAKDAGEEPEIAGIYVIGDDGAPFRVGFTLSNEFSDHVTERVNYLFLAHSKLRNASFGPEILIGDLPSDIRGTSRIVRDGETLWEKPFLSGEANMSHTIANLEHHHFKYSAFRQPGDVHVHMFGTATLSFADGVKTEAGDVFEIEAGDFGLPLRNPLEIEKPVKVAVKAL | not soluble
14 | VETISFSFSEFEPGNNDLTLQGAAIITQSGVLQLTKINQNGMPAWDSTGRTLYTKPVHIWDMTTGTVASFETRFSFSIEQPYTRPLPADGLVFFMGPTKSKPAQGYGYLGVFNNSKQDNSYQTLAVEFDTFSNPWDPPQVPHIGIDVNSIRSIKTQPFQLDNGQVANVVIKYDASSKILLAVLVYPSSGAIYTIAEIVDVKQVLPEWVDVGLSGATGAQRDAAETHDVYSWSFHASLPETND | soluble
15 | AHHHHHHGSKRRAVVLFSGGLDSTACLYWAKKQYDEVIMLTVNYGSNEERVTNKVAEYFSKELDVRLKIVKLDFLKEFSEIRGSSLVGGEVPRVTAEELEDIEKASETARSVWIPARNLVLISVAASLLDALGGGDIIVGFNAEEATTFPDNSREFVEKLNEALRFATLNPVKVVAPLIDLDKRGIAKLLKELNAKYEYSNSCYNPKGFTEDGRPIHCGECESCVRRHKGLIEGIGEDKTVYAITPRI | not soluble
16 | MGSDKIHHHHHHMSESHLYTYGIIDDNESLALNVDGVAGATRAYTVSYRSLSAVVSDIETTDPERTDAAVEAHNTVLQAVLEHDATRAVVPMSFGMAFKNARTLKGVLRGARRALRSTLTEIAGTVELGVKVLAPGDDTAVDTAAVRSDVTARLSALSVGETENDCFTDRLIINKSYLVEHDTRDAFDAAIDEIDAAHDDLTVRYTGPWPPYNFVDIHIGAEQAQQGGR | not soluble
17 | MTEEFYIGTYTKRISRGIYRVSVDTTTPKLMDCEWLASAGSPTYIAKSNAKRLYVINKKETDGQTHGGLIIYDMSEDKPRAIQQLLDLGSSPAYVAVDEDRQLVYTANYHTAAVDVYAINPDGTLKRTDQVIDQDPVGPAPEQADGPHPHFADLTPDNRLVVCDLGSDRVYVYDVSATGKLSAVSHLDLPAGYGPRHIVFDAKKGVAYLVGELSSNVATLSYDTATGTFTVKTIVSTIPDDWTAHNGAAAIRLSADGKFVYVSNRGNNSLAVFASDEAGQLTLVQRISTEGDFPRDFNWTANQRLVLVVNQNSDNASLFERDAQSGKLTLVQKDFMVPEGVSVLPAKLEHHHHHH | soluble
18 | MPRISKRQLILESAAAIINEKGADYLTLDAVAQRAGISKGGLFYHFKSKDELIKELVNYANNLYRDNVNQHIGNEKNKKGQWLNAFIEATRAHRTDNAPITSGMLAAQGTNRSLLSPLKTSYQEWQYQITHDGLDEVDATIIRLAVDGLWLSEIFGISAIDEEMREKVIERLKMQIEKN | not soluble
19 | GKENDAGDIVEKFDPTEAQSVEVQDERPETTIGRGKPTDEVVLLSEAHRPEEKMAAYEDEHGTYIMNSKDLRAVQHVERLTKMGVHSLKIEGRTKSFYYCARTAQVYRKAIDDAVAGKPFDESLMGTLESLAHRGYTEGFLRRHTHDTYQNYDYGYSVSDAQQFVGEFTGKRRGDMAEVEVKNKFVVGDSLELMTPKGNVVFTLEAMENRKSESIEDAKGNGHFVFIPVPEDMDLEYGLLMRNLNAGQDTRNPTGK | not soluble
